The results in this text go back to the PETadex activity labels (doi:10.1038/s41467-023-40233-w).

First the molecules themselves.
B1: unnamed (protein)
chain: MLSFLRSTGRPERRRASLPALLLFTAALVASGLTAAPAAQAADNPYQRGPDPTNASIEAATGPFAVGTQPIVGASGFGGGQIYYPTDTSQTYGAVVIVPGFISVWAQLNWLGPRLASQGFVVIGIETSVITDLPDPRGDQALAALDWATTRSPVASRIDRTRLAAAGWSMGGGGLRRAACQRPSLKAIVGMAPWNGERNWSCVTVPTLFFGGSSDAVASPNDHAKPFYNSITRAEKDYIELCNADHFFPTSANTTMAKYFISWLKRWVDNDTRYTQFLCPGPSTGLFAPVCASMNTCPF
B2: unnamed (protein)
chain: MLSFLRSTGRPERRRASLPALLLFTAALVASGLTAAPAAQAADNPYQRGPDPTNASIEAATGPFAVGTQPIVGASGFGGGQIYYPTDTSQTYGAVVIVPGFISVWAQLNWLGPRLASQGFVVIGIETSVITDYPDPRGDQALAALDWATTRSPVASRIDRTRLAAAGWSMGGGGLRRAALQRPSLKAIVGMAPWNGERNWSAVTVPTLFFGGSSDAVASPNDHAKPFYNSITRAEKDYIELRNADHFFPTSANTTMAKYFISWLKRWVDNDTRYTQFLCPGPSTGLFAPVSASMNTCPF
B3: unnamed (protein)
chain: MLSFLRSTGRPERRRASLPALLLFTAALVASGLTAAPAAQAADNPYQRGPDPTNASIEAATGPFAVGTQPIVGASGFGGGQIYYPTDTSQTYGAVVIVPGFTSVWAQLNWLGPRLASQGFVVIGIETSVITDLPDPRGDQALAALDWATTRSPVASRIDRTRLAAAGWSMGGGGLRRAALQRPSLKAIVGMAPWNGERNWSAVTVPTLFFGGSSDAVASPNDHAKPFYNSITRAEKDYIELRNADHFFPTSANTTMAKYFISWLKRWVDNDTRYTQFLCPGPSTGLFAPVSASMNTCPF
B4: unnamed (protein)
chain: MLSFLRSTGRPERRRASLPALLLFTAALVASGLTAAPAAQAADNPYQRGPDPTNASIEAATGPFAVGTQPIVGASGFGGGQIYYPTDTSQTYGAVVIVPGFISVWAQLNWLGPRLASQGFVVIGIETSVITDLPDPRGDQALAALDWATTRSPVASRIDRTRLAAAGWSMGGGGLRRAALQRPSLKAIVGMAPWNLERNWSAVTVPTLFFGGSSDAVASPNDHAKPFYNSITRAEKDYIELRNADHFFPTSANTTMAKYFISWLKRWVDNDTRYTQFLCPGPSTGLFAPVSASMNTCPF
B5: unnamed (protein)
chain: MLSFLRSTGRPERRRASLPALLLFTAALVASGLTAAPAAQAADNPYQRGPDPTNASIEAATGPFAVGTQPIVGASGFGGGQIYYPTDTSQTYGAVVIVPGFISVWAQLNWLGPRLASQGFVVIGIETSVITDLPDPRGDQALAALDWATTRSPVASRIDRTRLAAAGWSMGGGGLRRAALQRPSLKAIVGMAPWNGERNWSAVTVPTLFFGGSSDAVASPNDHAKPFYNSITAAEKDYIELRNADHFFPTSANTTMAKYFISWLKRWVDNDTRYTQFLCPGPSTGLFAPVSASMNTCPF
B6: unnamed (protein)
chain: MLSFLRSTGRPERRRASLPALLLFTAALVASGLTAAPAAQAADNPYQRGPDPTNASIEAATGPFAVGTQPIVGASGFGGGQIYYPTDTSQTYGAVVIVPGFISVWASLNWLGPRLASQGFVVIGIETSVITDLPDPRGDQALAALDWATTRSPVASRIDRTRLAAAGWSMGGGGLRRAALQRPSLKAIVGMAPWNGERNWSAVTVPTLFFGGSSDAVASPNDHAKPFYNSITRAEKDYIELRNADHFFPTSANTTMAKYFISWLKRWVDNDTRYTQFLCPGPSTGLFAPVSASMNTCPF
B7: unnamed (protein)
chain: MLSFLRSTGRPERRRASLPALLLFTAALVASGLTAAPAAQAADNPYQRGPDPTNASIEAATGPFAVGTQPIVGASGFGGGQIYYPTDTSQTYGAVVIVPGFISVWAQLAWLGPRLASQGFVVIGIETSTITDLPDPRGDQALAALDWATTRSPVRSRIDRTRLAAAGWSMGGGGLRRAACQRPSLKAIVGMAPWNGEKNWSCVTVPTLFFGGSSDAVASPNDHAKPFYNSITRAEKDYIELCNADHFFPTSANTTMAKYFISWLKRWVDNDTRYTQFLCPGPSTGLFAPVCASMNTCPF
B8: unnamed (protein)
chain: MLSFLRSTGRPERRRASLPALLLFTAALVASGLTAAPAAQAADNPYQRGPDPTNASIEAATGPFAVGTQPIVGASGFGGGQIYYPTDTSQTYGAVVIVPGFISVWAQLNWLGPRLASQGFVVIGIETSVITDLPDSRGDQALAALDWATTRSPVASRIDRTRLAAAGWSMGGGGLRRAALQRPSLKAIVGMAPWNGERNWSAVTVPTLFFGGSSDAVASPNDHAKPFYNSITRAEKDYIELRNADHFFPTSANTTMAKYFISWLKRWVDNDTRYTQFLCPGPSTGLFAPVSASMNTCPF
B9: unnamed (protein)
chain: MLSFLRSTGRPERRRASLPALLLFTAALVASGLTAAPAAQAADNPYQRGPDPTNASIEAATGPFAVGTQPIVGASGFGGGQIYYPTDTSQTYGAVVIVPGFISVWAQLNWLGPRLASQGFVVIGIETSVITDLPDPRGDQALAALDWATTRSPVASRIDRTRLAAAGWSMGGGGLRRAALQRPSLKAIVGMAPWNGERNWSAVTVPTLFFGGSSDAVASPNDHAKPFYNSITRAEKDYIELRNADHFFPTSANTTMAKYFISWLKRWVDNDTRYTQFLCPGPSTGLFAPVSASRNTCPF
B10: unnamed (protein)
chain: MLSFLRSTGRPERRRASLPALLLFTAALVASGLTAAPAAQAADNPYQRGPDPTNASIEAATGPFAVGTQPIVGASGFGGGQIYYPTDTSQTYGAVVIVPGFISVWAQLNWLGPRLASQGFVVIGIETSVITDLPDPRGDQALAALDWATTRSPVASRIDRTRLAAAGWSMGGGGLRRAALQRPSLKAIVGMAPWNGERNWSAVCVPTLFFGGSSDAVASPNDHAKPFYNSITCAEKDYIELRNADHFFPTSANTTMAKYFISWLKRWVDNDTRYTQFLCPGPSTGLFAPVSASMNTCPF
B11: unnamed (protein)
chain: MLSFLRSTGRPERRRASLPALLLFTAALVASGLTAAPAAQAADNPYQRGPDPTNASIEAATGPFAVGTQPIVGASGFGGGQIYYPTDTSQTYGAVVIVPGFISVWAQLAWLGPRLASQGFVVIGIETSVITDLPDPRGDQALAALDWATTRSPVASRIDRTRLAAAGWSMGGGGLRRAACQRPSLKAIVGMAPWNGERNWSCVTVPTLFFGGSSDAVASPNDHAKPFYNSITRAEKDYIELCNADHFFPTSANTTMAKYFISWLKRWVDNDTRYTQFLCPGPSTGLFAPVCASMNTCPF
B12: unnamed (protein)
chain: MLSFLRSTGRPERRRASLPALLLFTAALVASGLTAAPAAQAADNPYQRGPDPTNASIEAATGPFAVGTQPIVGASGFGGGQIYYPTDTSQTYGAVVIVPGFISVWAQLNWLGPRLASQGFVVIGIETSVITDLPDPRGDQALAALDWATTRSPVASRIDATRLAAAGWSMGGGGLRRAALQRPSLKAIVGMAPWNGERNWSAVTVPTLFFGGSSDAVASPNDHAKPFYNSITRAEKDYIELRNADHFFPTSANTTMAKYFISWLKRWVDNDTRYTQFLCPGPSTGLFAPVSASMNTCPF
B13: unnamed (protein)
chain: MLSFLRSTGRPERRRASLPALLLFTAALVASGLTAAPAAQAADNPYQRGPDPTNASIEAATGPFAVGTQPIVGASGFGGGQIYYPTDTSQTYGAVVIVPGFISVWAQLNWLGPRLASQGFVVIGIETSVITDLPDPRGDQALAALDWATTRSPVASRIDRTRLAAAGWSMGGGGLRRAALQRPSLKAIVGMAPWNGERNWSAVTVPTLFFGGSSDAVASPNDHAKPFYNSITRAEKDYIELRNADHFFPNSANTTMAKYFISWLKRWVDNDTRYTQFLCPGPSTGLFAPVSASMNTCPF
B14: unnamed (protein)
chain: MLSFLRSTGRPERRRASLPALLLFTAALVASGLTAAPAAQAADNPYQRGPDPTNASIEAATGPFAVGTQPIVGASGFGGGQIYYPTDTSQTYGAVVIVPGFISVWAQLNWLGPRLASQGFVVIGIETSVITDQPDPRGDQALAALDWATTRSPVASRIDRTRLAAAGWSMGGGGLRRAALQRPSLKAIVGMAPWNGERNWSAVTVPTLFFGGSSDAVASPNDHAKPFYNSITRAEKDYIELRNADHFFPTSANTTMAKYFISWLKRWVDNDTRYTQFLCPGPSTGLFAPVSASMNTCPF
B15: unnamed (protein)
chain: MLSFLRSTGRPERRRASLPALLLFTAALVASGLTAAPAAQAADNPYQRGPDPTNASIEAATGPFAVGTQPIVGASGFGGGQIYYPTDTSQTYGAVVIVPGFISVWAQLNWLGPRLASQGFVVIGIETSVITDLPDPRGDQALAALDWATTRSPVASRIDRTRLAAAGWSMGGGGLRRAALQRPSLKAIVGMAPWNGERNWSAVTVPTLFFGGSSDAVASPNDHAKPFYNSITRAEKDYIELRNADHFFPTSNNTTMAKYFISWLKRWVDNDTRYTQFLCPGPSTGLFAPVSASMNTCPF
B16: unnamed (protein)
chain: MLSFLRSTGRPERRRASLPALLLFTAALVASGLTAAPAAQAADNPYQRGPDPTNASIEAATGPFAVGTQPIVGASCFGGGQIYYPTDTSQTYGAVVIVPGFISVWAQLNWLGPRLASQGFVVIGIETSVITDLPDPRGDQALCALDWATTRSPVASRIDRTRLAAAGWSMGGGGLRRAALQRPSLKAIVGMAPWNGERNWSAVTVPTLFFGGSSDAVASPNDHAKPFYNSITRAEKDYIELRNADHFFPTSANTTMAKYFISWLKRWVDNDTRYTQFLCPGPSTGLFAPVSASMNTCPF

Substrate in one series: pcPET (post-consumer)
The series can be described thus: Proxy for plastic degradation [Released monomer concentration (HPLC/LC-MS) (TPA+MHET+BHET)]. The conditions noted are these: pH 9; 40 °C; 24 h.
For B1, the “Proxy for plastic degradation” value is 948 µM. With B2, the “Proxy for plastic degradation” value was 405 µM.

As for B3, the “Proxy for plastic degradation” value was found to be 560 µM.

As for B4, the “Proxy for plastic degradation” value was 520 µM. The same measure, in the same setting: the same measure for B5: 715 µM; for B6: 620 µM.

For B7, the “Proxy for plastic degradation” value stood at 1250 µM.

Consider B8, for which the “Proxy for plastic degradation” value was found to be 680 µM. Regarding B9, the “Proxy for plastic degradation” value came out at 310 µM. Same read-out and setting: the same measure for B10: 590 µM; for B11: 1080 µM. With B12, the “Proxy for plastic degradation” value was determined as 680 µM. Consider B13, for which the “Proxy for plastic degradation” value stood at 10 µM. Same read-out and setting: next, B14: 470 µM.

For B15, the “Proxy for plastic degradation” value amounted to 530 µM.

With B16, the “Proxy for plastic degradation” value turned out to be 295 µM.

The series is the same for the next values; noted with them: pH 9; 60 °C; 6 h.
For B1, the “Proxy for plastic degradation” value was determined as 270 µM. For B7, the “Proxy for plastic degradation” value is 1560 µM.

With B11, the “Proxy for plastic degradation” value worked out at 420 µM.
